This is an account of results in US7135457B1, “Random peptides that bind to gastro-intestinal tract (GIT) transport receptors and related methods” (Cytogen Corporation, priority 1997, dated 2006).

Data set [1] is described as follows: Peptide stability in simulated intestinal fluid (SIF). The note with it: rank of relative stability to SIF, 1 = most stable. Format: in vitro ADME. On the procedure: The relative stability for ZElan031, ZElan053 and ZElan054 was determined in simulated intestinal fluid (SIF) SIF was made by dissolving 100 mg of pancreatin (Sigma cat# P-5 1625, lot# 122H0812) in 8.4 ml of phosphate stock solution, adjusting the pH to 7.5 with 0.2N NaOH and adjusting the volume to 10 ml with water.
Peptide (3.25 mg) was dissolved in 3.25 ml of 10,000 fold diluted SIF solution at 37° C. Aliquots (0.7 ml) of the digestion solution were then withdrawn at <1 min, 1 h, 3 h, and 21 h or 24 h. The samples were quickly passed through a syringe filter (Millipore Millex-GV 0.22 μm, part# SLGV025LS, lot# H2BM95250) and 300 μL of the filtered solution was immediately injected onto a Hewlett-Packard HPLC system equipped with a C-8 column (Applied Biosystems column and guard column: column-p/n 0711-0023 Spheri-5 ODS 5 μm, 220×4.6 mm). The products were eluted at 1.5 ml/min using an acetonitrile-water gradient. The major fluorescent peaks were collected, lyopholized and identified by MS analysis.

For another data set, the target named is BSA (Bos taurus, UniProt P02769). In words: Phage ELISA on BSA (background control protein). Format: binding. The procedure: 96 well plates were coated overnight with GIT receptor, BSA and, optionally, IDE (insulin degrading enzyme, an irrelevant His-fusion protein) or hTF. The plates were blocked for one hour with 0.5% BSA-PBS. After clarification, the amplified phage were diluted 1:100 in 1% BSA plus 0.05% Tween 20 in PBS and added to the plates. Following incubation of the plates on a rotator for 1 to 2 hours, the plates were washed 5 times with 1% BSA plus 0.05% Tween 20 in PBS. Dilute anti-M13-HRP conjugate (anti-M13 antibody linked to horse radish peroxidase (HRP)) was added to all the wells and the plate was incubated for one hour on a rotator. After the plates were washed 5 times, as described above, TMB substrate was added to the wells. The plates were read at 650 nm absorbance.
BSA, sequence (P02769 25-607): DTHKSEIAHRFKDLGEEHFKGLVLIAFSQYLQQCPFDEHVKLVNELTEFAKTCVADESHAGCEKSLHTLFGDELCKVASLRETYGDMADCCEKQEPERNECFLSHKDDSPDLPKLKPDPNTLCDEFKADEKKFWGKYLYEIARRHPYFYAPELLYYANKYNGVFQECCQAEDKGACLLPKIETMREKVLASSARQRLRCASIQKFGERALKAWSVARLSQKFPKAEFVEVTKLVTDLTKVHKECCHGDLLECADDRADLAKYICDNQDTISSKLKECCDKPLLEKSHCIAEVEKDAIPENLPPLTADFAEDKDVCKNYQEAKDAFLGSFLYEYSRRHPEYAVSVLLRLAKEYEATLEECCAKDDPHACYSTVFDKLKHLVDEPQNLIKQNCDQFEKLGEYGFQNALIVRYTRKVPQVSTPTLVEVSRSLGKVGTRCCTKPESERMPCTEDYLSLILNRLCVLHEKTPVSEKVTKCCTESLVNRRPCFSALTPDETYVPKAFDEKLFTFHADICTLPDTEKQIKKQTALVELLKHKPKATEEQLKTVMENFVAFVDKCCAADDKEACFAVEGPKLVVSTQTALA
(ELISA stands for enzyme-linked immunosorbent assay.)

For data set [2] the following is noted: for transport from the GIT closed loop into the portal circulation (in words): text summary of hSI, D2H, HPT1, hPEPT1 pools; for presence in the intestine samples or fractions (in words): text summary of the four pools; for presence in the systemic circulation (in words): text summary of HPT1 and hPEPT1 pools. The procedure:
In particular, phages selected in vitro to each receptor or binding site located in the GIT were amplified in E. coli, PEG-precipitated, resuspended in TBS and the titer of each phage sample was determined by plaquing in E. coli as described above. […] Using the in situ loop model described above, 0.5 ml of preselected phage library solution was injected into the tied-off portion of the duodenum/jejunum. Blood was collected into heparinized tubes from the portal vein at 0, 15, 30, 45 and 60 minutes. A blood sample was taken from the systemic circulation at the end of the experiment. Similarly, the portion of the duodenum/jejunum used for phage injection was taken at the end of the experiment.
Thirty microliters of the collected portal blood (neat and 10^−2, 10^−4, 10^−6 dilutions) was added to 30 μl E. coli K91Kan cells (overnight culture) and incubated at 37° C. for 10 min. Subsequently, 3 ml of top agarose was added and the samples were plated for plaques. One hundred microliters of the collected portal blood was added to 100 μl of E. coli K91Kan. Five milliliters of LB medium was then added and the samples were incubated at 37° C. overnight in a rotating microbial incubator. The E. coli was removed by centrifugation and the amplified phage supernatant samples were either titered directly or were PEG-precipitated, resuspended in TBS and titered. Following titration of the amplified phage, samples containing phage from each set of animals were combined, adjusting the titer of each sample to the same titer, and were plated for plaques on LB agar plates (22 cm^2 square plates). Either 12,000 or 24,000 phage were plated for plaques.
Thirty microliters of the collected systemic blood (neat and 10^−2, 10^−4, 10^−6 dilutions) was added to E. coli K91Kan cells, incubated at 37° C. for 10 min. Three ml of top agarose was then added and the samples were plated for plaques. One hundred microliters of the collected systemic blood was added to 100 μl of E. coli K91Kan, incubated at 37° C. for 10 min. Five milliliters of LB medium was then added and the samples were incubated at 37° C. overnight in a rotating microbial incubator. The E. coli was removed by centrifugation and the amplified phage supernatant samples were either titered directly or were PEG-precipitated, resuspended in TBS and titered. Following titration of the amplified phage, samples containing phage from each set of animals were combined, adjusting the titer of each sample to the same titer, and were plated for plaques on LB agar plates (22 cm^2 square plates). Either 12,000 or 24,000 phage were plated for plaques. The intestinal tissue portion used in each closed loop was excised. […] Alternatively, the tissue (in PBS supplemented with protease inhibitors) was homogenized in an Ultra Thorex homogenizer, washed 3 times in PBS containing protease inhibitors and resuspended in PBS containing protease inhibitors (Int-G samples). In each case, serial dilutions (neat and 10^−2, 10^−4, 10^−6 dilutions) of the tissue homogenate was titered in E. coli.
The phage amplified from the portal blood, systemic blood and intestinal tissue was plated for plaques. […] The filters were air-dried, and the DNA was cross-linked to the filter (UV crosslinking: 2 min, high setting). The filters were incubated in pre-hybridization buffer (6×SSC, 5×Denhardt's solution, 0.1% SDS, 20 μg/ml yeast tRNA) at 40° C.-45° C. for at least 60 min.
Synthetic oligonucleotides, (22-mers), complimentary to regions coding for the receptor or binding sites used to create the preselected phage library, were synthesized (see Table 14 below).
The oligonucleotides (5 pmol) were 5′ end labelled with ^32P-ATP and T4 polynucleotide kinase and approximately 2.5 pmol of labelled oligonucleotide was used in hybridization studies. […] The filters were air-dried and exposed for autoradiography for 15 hours, 24 hours or 72 hours.
Hybridization data for pools from each receptor group of rats was compiled.

Data set [3] can be described thus: Drug potency, peptide loading and size of coacervated particles. Conditions: formulation 1 particles (coacervation), blend; for Insulin (insulin potency): coated with the named peptide; for Peptide (level of peptide coated onto the particles): measured by fluorescence. It is filed as physicochemical.
In data set [4] the test system is fixed Caco-2 or C2BBe1 cells. As to the kind of experiment: ELISA of GST fusion proteins on fixed Caco-2 or C2BBe1 cells. Format: binding. The procedure:
Fixed Caco-2, C2BBe1, and A431 cell plates were prepared by growing cells on tissue culture treated microtiter plates. When cells were confluent, plates were fixed with 10% formaldehyde, washed twice with PBS and stored with 0.5% BSA-PBS at −20° C. […] The standard ELISA procedure was followed at this point.
The standard ELISA procedure was modified as follows. GST proteins were diluted to an appropriate concentration in PBS containing 1% BSA and 0.05% Tween20 (1% BPT), titered and incubated one hour at room temperature. Following five washes an anti-GST monoclonal antibody was added (Sigma, St. Louis Clone GST-2 diluted 1:10,000 in 1% BPT) and incubated one hour. After five more washes goat anti-mouse IgG2b-HRP was added (Southern Biotechnology Associates Inc., Birmingham, Ala., diluted 1:4000 in 1% BPT) and incubated one hour. After five washes plates were developed with TMB peroxidase substrate (Kirkegard and Perry, Gaithersburg, Md.). All data is presented with background binding subtracted.

Data set [5] can be described thus: Crossreactive binding of GST fusions to dansylated peptides.
Data set [6] has as its system P100 membrane fraction derived from Caco-2 cells. As to the kind of experiment: GST-PAX2 peptides relative binding to P100 fractions. The note with it: 20 μg/ml; binding to plastic subtracted; GST-HAX42 = 1.00. The procedure:
The peptides and proteins were analyzed by a dansylated peptide ELISA method in which 96 well plates were coated overnight at 4° C. with 100 μl/well coating protein (normally 100 μg/ml P100 membrane fraction) in 0.05M carbonate buffer pH9.6. Nonspecific binding was blocked using 200 μl/well, 2% Marvel/PBS for 2 hours at 37° C. prior to incubation with dansylated peptides. The plates were washed three times with PBS/0.05% Tween 20 and after each subsequent incubation step. […] A buffer blank control was included to ensure that background binding to plastic was not due to the antibodies used in the assay system. […] The plates were then incubated with an anti-mouse λ-HRP conjugated antibody (Southern Biotech 1060-05) at a 1:10,000 dilution in blocking solution, 100 μl/well for 1 hour at room temperature. Plates were developed using 75 μl/well Bionostics TMB substrate and incubated for approximately 10 minutes. The developing reaction was stopped using Bionostics Red Stop solution (25 μl/well), and the optical density of the plates was read at 650 nm.
After subtraction of the GST-peptide binding to plastic from P100 binding values, the binding of GST-PAX2 peptides were represented as a ratio of GST-HAX42 binding to P100, which was given the arbitrary value of 1.00. The following ratios were determined from binding to P100 of GST-peptides at a peptide concentration of 20 μg/ml. Bold denotes positive binding to the P100 membrane fraction.

Another data set deals with fixed Caco-2 cells. In words: Effect of thrombin cleavage on binding of GST-peptide fusions to fixed Caco-2 cells. On the procedure:
Binding of intact and thrombin-cleaved GST-peptide fusions to fixed Caco-2 cells was compared.
Thirty micrograms of each GST-peptide was treated with bovine thrombin (1μ/ml; 0.4 NIH units; Sigma CN.T9681) for 18 h at room temperature in 20 mM Tris-HCl pH8.0, 150 mM NaCl, 2.5 mM CaCl2. Controls were similarly treated without addition of thrombin. Ten micrograms of each GST-peptide fusion was removed for PAGE analysis, and 10 μg of fusions were added in duplicate to the fixed Caco-2 cells before 5-fold serial dilutions (1% BPT diluent). The fusions were allowed to bind for 1 h at room temperature. Following 6 washes with 1% BPT, binding was assayed by ELISA.

Square brackets hold non-standard residues; d marks the D form. Peptide text beside a SMILES is read from it. * marks the point of attachment. Dansyl = CN(C)c1cccc2c(S(=O)(=O)*)cccc12

With `C[C@@H](O)[C@H](NC(=O)[C@@H](N)CCCCNS(=O)(=O)c1cccc2c(N(C)C)cccc12)C(=O)N[C@@H](CCCNC(=N)N)C(=O)N[C@@H](CCCCN)C(=O)N[C@@H](CO)C(=O)N[C@@H](CO)C(=O)N[C@H](CCCNC(=N)N)C(=O)N[C@@H](CO)C(=O)N[C@@H](CC(N)=O)C(=O)N1CCC[C@H]1C(=O)N[C@@H](CCCNC(=N)N)C(=O)NCC(=O)N[C@H](CCCNC(=N)N)C(=O)N[C@@H](CCCNC(=N)N)C(=O)N[C@@H](Cc1c[nH]cn1)C(=O)N1CCC[C@H]1C(=O)NCC(N)=O` [ZElan054, H2N-K(dns)TRKSSrSNPRGrRHPG-CONH2] (H-K(Dansyl)TRKSS[dR]SNPRG[dR]RHPG-NH2), in data set [1], the “Rel. Stab.” value was 2.
With “SQGSKQCMQYRTGRLTVGSEYGCGMNPARHATPAYPARLLPRYR [DCX11]”, in the data set with BSA (Table 3), the BSA came to 0.071 OD. Also, in data set [2], the “transport from the GIT closed loop into the portal circulation (in words)” value (“transport” below) was “preferably transported” and the “presence in the intestine samples or fractions (in words)” value is “found in the intestinal samples fractions”.
“SARDSGPAEDGSRAVRLNGVENANTRKSSRSNPRGRRHP [Peptide P31]”: the BSA in the data set with BSA (Table 4) stood at 0.075 OD. For the same compound, in data set [2], the “presence in the systemic circulation (in words)” value is on record as “found in the systemic circulation”, the “transport” value is on record as “found in the portal circulation” and the “presence in the intestine samples or fractions (in words)” value is given as “preferential binding”. Besides, in data set [3], the “Insulin (insulin potency)” value came out at 67.0 mg/g and the “Peptide (level of peptide coated onto the particles)” value is 1.22 µL/mg.
Take “gst-STPPSREAYSRPYSVDSDSDTNAKHSSHNRRLRTRSRPN [GST-PAX2]”: the “binding to fixed Caco-2 or C2BBe1 cells relative to GST control” value in data set [4] (Caco-2) was “bound”. For the same compound, the “crossreactive binding to ZElan024 (P31) and ZElan018 (PAX2)” value in data set [5] (0.5 μg/ml GST fusion) is “no crossreactive binding”. Moreover, in data set [6], the “Value: binding to P100 as a ratio of GST-HAX42 binding” value (“Value: binding to P100 as a ratio” for short) amounted to 1.79.
Take “gst-SDHALGTNLRSDNAKEPGDYNCCGNGNSTGRXVFNRRRPSAIPT [GST-HAX42]”: the “binding to fixed Caco-2 or C2BBe1 cells relative to GST control” value in data set [4] (Caco-2) is reported as “weak to moderate binding”. In data set [5] (5 μg/ml GST fusion), the “crossreactivity to ZElan018 (PAX2) and ZElan021 (HAX42)” value was “exhibited crossreactivity”. Besides, in data set [6], the “Value: binding to P100 as a ratio” value is 1.00.
“gst-RVGQCTDSDVRRPWARSCAHQGCGAGTRNSHGCITRPLRQASAH [GST-SNi10]”: the “binding to fixed Caco-2 or C2BBe1 cells relative to GST control” value in data set [4] (anti-GST ELISA) is reported as “bound”. The “effect of thrombin cleavage on detection of binding to fixed Caco-2 cells” value (“effect of thrombin cleavage” below) with fixed Caco-2 cells (thrombin 18 h at room temperature) is “significantly reduced”.
On to gst-ENANTRKSSRSNPRGRRHP [GST-P31.103], for which, in data set [4] (Caco-2), the “binding of truncated GST fusion compared with full-length, fixed Caco-2 cells” value is given as “bound almost as well as full-length P31”. In the data set on fixed Caco-2 cells (Caco-2), the “effect of thrombin cleavage” value is on record as “significantly reduced”.
“SDHALGTNLRSDNAKEPGDYNCCGNGNSTGRKVFNRRRPSAIPT [HAX42]” registered a BSA with BSA (Table 5) of 0.071 OD. In data set [2], the “presence in the systemic circulation (in words)” value is “found in the portal and systemic circulation”; the “transport” value is “found in the portal and systemic circulation”. Moreover, in data set [3], the “Insulin (insulin potency)” value came out at 55.9 mg/g and the “Peptide (level of peptide coated onto the particles)” value came out at 2.93 µL/mg.
With gst-TNAKHSSHNRRLRTRSRPN [GST-106], the “binding of truncated GST fusion compared with full-length, fixed Caco-2 cells” value in data set [4] (Caco-2) is “bound similarly to full-length PAX2”. Moreover, the “effect of thrombin cleavage” value in the data set on fixed Caco-2 cells (Caco-2) is on record as “significantly reduced”. Besides, the “Value: binding to P100 as a ratio” value in data set [6] is given as 2.71.
